Tests used:
[1] = NS-ELISA non-specific binding, heparin; conditions: mAb at 100 nM
Method: The isoelectric point was measured by capillary isoelectric focusing (cIEF), the propensity for self-aggregation was measured by Affinity-capture self-interaction nanoparticle spectroscopy (AC-SINS) and non-specific binding was measured by NS-ELISA, as described below.
NS-ELISA was used to measure the propensity of the antibodies to bind to a range of biomolecules to emulate the undesirable non-specific interactions to biological matrices in vivo as described below.
NS-ELISA was carried out in Corning®96-well EIA/RIA Easy Wash™ Clear Flat Bottom Polystyrene High Bind Microplate coated overnight at 4° C. with 50 μL of Heparin (Sigma, H3149) diluted with 50 mM sodium carbonate pH 9.6 to a final concentration of 250 μg/mL. The plate was incubated for 2 days at room temperature, wells that were coated with heparin were not covered to allow air dry. […] Reactions were stopped after approximately 10 minutes by adding 100 μL of 1 M HCl to each well, and absorbance was read at 450 nm. Binding scores were calculated as the ratio of the ELISA signal of the antibody (antibody-treated) to the signal of a well containing buffer instead of the primary antibody (untreated). The cutoffs considered for each binding molecule (ssDNA, KLH, insulin, dsDNA and heparin) were internally calculated, based on the average of Zymeworks Inc. produced antibodies and antibodies benchmarks published in the literature.

[2] = Stability (fragmentation) in PBS pH 7.4 at 37° C. by LC-MS; type: physicochemical; conditions: for apparent % desired proteoforms: PBS 37° C., 0.5 mg/ml
Method: Samples were removed after 0, 7 and 14 days and stored at −80° C. until characterization. For characterization, samples were thawed at room temperature and 50 μg were incubated with 5 μg of recombinant EndoS endoglycosidase for one hour at room temperature. An immunoprecipitation slurry was generated by a 45 min incubation of 95 μL/sample of magnetic Sepharose streptavidin-coated beads with 15 μg/sample of biotinylated goat anti-Human IgG Fc capture antibody, followed by 4 washes with PBS pH 7.4 with the aid of a DynaMag™-2 magnet (Invitrogen™).
After deglycosylation, plasma-incubated samples were incubated with 95 μL of the immunoprecipitation slurry for 1.5 hrs at room temperature. Then, the slurry underwent 6 washes with PBS pH 7.4 and 2 washes with LC-MS-grade water with the aid of a DynaMag™-2 magnet (Invitrogen™). A final wash with PBS pH 7.4 was performed before elution. Protein was eluted by incubating beads with 35 μL of LC-MS grade water with 20% acetonitrile and 0.1% formic acid for one hour at room temperature. PBS samples were not immunoprecipitated.
5 μL of the eluted sample were transferred to glass inserts in LC-MS vials. For LC-MS analysis, 1 μL of sample were injected into a Waters™ BioSuite Phenyl Column, 1000 Å, 10 μm, 4.6 mm×75 mm using a Waters™ ACQUITY™ UPLC I-Class HPLC system coupled to a Waters™ Synapt™ G2-Si HDMS with a column temperature of 70 C and a flow rate of 0.3 mL/min. Mobile phases consisted of A: LC-MS grade water with 0.1% v/v formic acid, 0.025 v/v trifluoroacetic acid and 10% v/v isopropyl alcohol in, and B: acetonitrile with 0.1% v/v formic acid and 10% v/v isopropyl alcohol. The column was pre-equilibrated in 10% mobile phase B before injection. Then, a 20 min 10 to 27% mobile phase B gradient was applied, followed by a 2 min 27 to 90% mobile phase B gradient and a column wash of 2 min at 99% mobile phase B.
The column was re-equilibrated to 10% mobile phase B for 2 minutes between runs. ESI was performed in positive mode with 3 kV of capillary voltage, 120 C source temperature, 100 V sampling cone voltage, source offset of 80 V, source gas flow of 0 ml/min, desolvation temperature 500 C, cone gas flow 0 μL/Hr, desolvation gas flow […], nebuliser gas flow 6.5 bar. Data format was continuum with analyser set in sensitivity mode, with a m/z range from 500 to 7000.
Peak integration, MS deconvolution and mass assignments were performed in Protein Metrics Byos® v4.0 using a deconvolution window of 60000-160000 Da with an m/z range of 1000-4000. For all time points, the highest intensity deconvoluted mass was assigned as the reference mass of v29456. […]

[3] = Thermal stability by differential scanning calorimetry (DSC); type: physicochemical; conditions: 0.4 mg/mL in PBS, scan 20° C. to 100° C. at 60° C./hr
Method: The thermal stability of the humanized antibody variants was assessed by differential scanning calorimetry (DSC) as described below.
400 μL of purified samples primarily at concentrations of 0.4 mg/mL in PBS were used for DSC analysis with a VP-Capillary DSC (Malvern Panalytical Inc., Westborough, MA). At the start of each DSC run, 5 buffer blank injections were performed to stabilize the baseline, and a buffer injection was placed before each sample injection for referencing. Each sample was scanned from 20° C. to 100° C. at a 60° C./hr rate, with low feedback, 8 sec filter, 3 min pre-scan thermostat, and 70 psi nitrogen pressure. The resulting thermograms were referenced and analyzed using Origin 7 software (OriginLab Corporation, Northampton, MA) to determine melting temperature (Tm) as an indicator of thermal stability.

- NS-ELISA binding score (ratio of signal between antibody-treated and untreated), Heparin [1]: 1.06
B1: v29456: humanized anti-NaPi2b IgG1/kappa antibody H1L2; VH SEQ ID NO:24, VL SEQ ID NO:29 (antibody, V domains shown)
VH: QVQLVQSGAEVKKPGASVKVSCKASGFTFTSYNVHWVRQAPGQGLEWMGAISPGNGDLSYAQKFQGRVTMTRDTSTSTVYMELSSLRSEDTAVYYCARGRTGMGAVDYWGQGTLVTVSS
VL: DVQMTQSPSSLSASVGDRVTITCRASQDVYSYLNWYQQKPGKAVKLLIYYTSRLQSGVPSRFSGSGSGTDYTLTISSLQPEDFATYYCQQYNIFPWTFGQGTKLEIK
modifications: v29452, v29456, v29460 VH (H1); v29453, v29454, v29455, v29456 VL (L2)
- fragmentation in PBS pH 7.4, in words ([2]; 37° C., 7 and 14 days): no evidence of fragmentation
- apparent % desired proteoforms ([2]; 0 days): 99.8%
- apparent % desired proteoforms ([2]; 7 days): 99.2%
- apparent % desired proteoforms ([2]; 14 days): 99.6%
- Fab Tm [3]: 77.9 °C

— patent US20250277030A1, “ANTI-NAPI2B ANTIBODIES AND METHODS OF USE” (Zymeworks BC Inc., priority 2022, published 2025)
